Laboratory results from patent US20250011443A1 (published 2025).
Positions count from the first letter of the chain named. Values belong to the binder of their own block, whether it stands above or below them.

What was measured:
[1] = target: T1, soluble GPC3 core polypeptide (human, UniProt P51654 25-563); test: competitive ELISA, soluble GPC3 core polypeptide on the plate, competitor biotinylated GPC3-H2L2
T1 construct: also called soluble GPC3 core protein; glypican 3 (antigen)

[2] = target: T2, SR344 (N-terminal 1st to 344th amino acids of soluble human IL-6R) (human, UniProt P08887 20-344, limits assumed); test: SPR (Biacore T100), antibody captured on Protein A/G, SR344 as analyte, 37 C
T2 construct: also called recombinant soluble human IL-6 receptor; soluble human IL-6 receptor
T2 sequence (looked up): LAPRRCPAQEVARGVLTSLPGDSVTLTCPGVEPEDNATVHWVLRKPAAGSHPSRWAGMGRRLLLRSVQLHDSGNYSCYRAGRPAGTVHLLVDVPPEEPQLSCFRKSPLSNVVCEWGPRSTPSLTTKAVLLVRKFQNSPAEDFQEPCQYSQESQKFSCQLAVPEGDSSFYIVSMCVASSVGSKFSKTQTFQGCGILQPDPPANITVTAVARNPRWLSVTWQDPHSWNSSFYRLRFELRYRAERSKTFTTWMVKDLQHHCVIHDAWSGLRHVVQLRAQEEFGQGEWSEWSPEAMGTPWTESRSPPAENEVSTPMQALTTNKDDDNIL

T1 sequence (P51654 other isoform, or with tags, fused parts or gaps limits assumed): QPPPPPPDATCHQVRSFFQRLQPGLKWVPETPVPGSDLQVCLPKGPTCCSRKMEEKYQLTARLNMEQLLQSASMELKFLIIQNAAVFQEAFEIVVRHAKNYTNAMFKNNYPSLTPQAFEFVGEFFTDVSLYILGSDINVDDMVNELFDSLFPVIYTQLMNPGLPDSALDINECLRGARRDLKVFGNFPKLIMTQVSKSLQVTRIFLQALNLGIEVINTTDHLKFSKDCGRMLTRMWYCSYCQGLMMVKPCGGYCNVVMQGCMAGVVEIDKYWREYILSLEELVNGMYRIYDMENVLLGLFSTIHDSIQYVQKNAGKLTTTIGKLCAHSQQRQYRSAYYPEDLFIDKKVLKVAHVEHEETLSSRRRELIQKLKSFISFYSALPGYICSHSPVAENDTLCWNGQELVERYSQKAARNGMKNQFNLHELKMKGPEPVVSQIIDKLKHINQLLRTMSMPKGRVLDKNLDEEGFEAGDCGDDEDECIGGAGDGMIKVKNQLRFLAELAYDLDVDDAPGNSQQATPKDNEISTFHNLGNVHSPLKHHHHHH

binding result [1]: binds
B1: GPC3_H2L2 (antibody, human IgG1, kappa, V domains shown)
VH: QVQLVQSGAEVKKPGASVKVSCKASGYTFTDYEMHWVRQAPGQGLEWMGALDPKTGDTAYSQKFKGRVTLTADKSTSTAYMELSSLTSEDTAVYYCTRFYSYTYWGQGTLVTVSS
VL: DVVMTQSPLSLPVTPGEPASISCRSSQSLVHSNRNTYLHWYLQKPGQSPQLLIYKVSNRFSGVPDRFSGSGSGTDFTLKISRVEAEDVGVYYCSQNTHVPPTFGQGTKLEIKR

binding result [1]: binds
B2: GPC3_H3L3 (antibody, human IgG1, kappa, V domains shown)
VH: B1 VH with K19T, V37I, A40P, Q43E, M48I, L51I, Q62E, K63S, K65Q, G66D
VL: B1 VL with V2I, R24Q, S25A, Q27E, L109V, K112E

fold weaker affinity for SR344 than for rhIL-6sR [2]: 2 fold
B3: RDC_23 (antibody, V domains shown)
VH: QVQLQESGPGLVRPSQTLSLTCTVSGYSITSDHAWSWVRQPPGRGLEWIGYISYSGITTYNPSLKSRVTMLRDTSKNQFSLRLSSVTAADTAVYYCARVLARITAMDYWGQGSLVTVSS
VL: DIQMTQSPSSLSASVGDRVTITCRASQDISSYLNWYQQKPGKAPKLLIYYTSRLHSGVPSRFSGSGSGTDFTFTISSLQPEDIATYYCGQGNRLPYTFGQGTKVEIK
notes: also called RDC_5H / RDC_11L
